The text below walks through data of patent CN108640991A (JIANGSU QYUNS BIOMEDICINE CO LTD, dated 2018).

One may read the Kd as the equilibrium constant for the complex coming apart. A lower Kd goes with higher affinity. The koff is the rate constant with which the complex falls apart. Low readings indicate slow dissociation, high ones fast dissociation. As a reminder, the kon is the second-order rate constant of association. Higher therefore signals fast association.

This test deals with T1, 人白介素17A (Human Interleukin-17A) (human, UniProt Q16552 24-155).
T1 construct: also called hIL-17A; IL-17A
Nature of the test: SPR Biacore T200, 25°C, antibody captured on Protein A CM5 chip, antigen in solution, 1:1 model.

T1 sequence (Q16552 24-155): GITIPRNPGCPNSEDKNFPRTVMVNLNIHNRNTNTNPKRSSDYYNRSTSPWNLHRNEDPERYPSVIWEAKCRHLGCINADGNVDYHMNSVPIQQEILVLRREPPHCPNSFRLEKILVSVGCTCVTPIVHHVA

B1: Ixekizumab (antibody, V domains shown)
VH: QVQLVQSGAEVKKPGSSVKVSCKASGYSFTDYHIHWVRQAPGQGLEWMGVINPMYGTTDYNQRFKGRVTITADESTSTAYMELSSLRSEDTAVYYCARYDYFTGTGVYWGQGTLVTVSS
VL: DIVMTQTPLSLSVTPGQPASISCRSSRSLVHSRGNTYLHWYLQKPGQSPQLLIYKVSNRFIGVPDRFSGSGSGTDFTLKISRVEAEDVGVYYCSQSTHLPFTFGQGTKLEIKR
The molecule B1 showed a Kd of 0.0154 nM, a koff of 2.58e-05 s⁻¹ and a kon of 1.7e+06 M⁻¹ s⁻¹.

B2: 抗人白介素17A单克隆抗体QX002N (antibody, V domains shown)
VH: EVQLQESGPGLVKPSETLSLTCTVSGIDLSLFYMSWIRQPPGKGLEWIGTIHEVASSYYASWAKGRVTISKDTSKNQFSLKLSSVTAADTAVYYCARETYSSRYPYPNIWGQGTLVTVSS
VL: DIQMTQSPSSVSASVGDRVTITCQASQNIGGSLAWYQQKPGKAPKLLIYGASSLASGVPSRFSGSGSGTDFTLTISSLQPEDFATYYCQSYNTISTYGLAFGGGTKVEIK
notes: Humanised from rabbit clone 37#; also called 37-5
Regarding B2, the affinity, expressed as Kd, was 0.00707 nM; the koff stood at 2.36e-05 s⁻¹; the kon stood at 3.35e+06 M⁻¹ s⁻¹.
